The record followed here is US9168297B2, “Regulation of skin pigmentation by neuregulin-1 (NRG-1)” (The United States of America, as Represented by the …, priority 2010, dated 2015).

For assay [1], the system named is ERBB3. In words: ERBB3 protein level by western blotting in melanocytes. It counts as cell-based, human. As to conditions: NRG-1 50 ng/ml, 5 days. As to the method: FIGS. 7A and 7B are digital images illustrating expression of ERBBs after NRG-1 treatment. FIG. 7A) HEM-LP and HEM-DP melanocytes were treated with or without NRG-1 (50 ng/ml) for 5 days, and levels of ERBB2, ERBB3 or ERBB4 were detected by western blotting. Results shown are representative of three studies. FIG. 7B) Expression of ERBB2 was examined in HEM-LP and in HEM-DP melanocytes after 1 or 9 days or treatment with NRG-1 compared to vehicle-treated controls; the results are representative of two independent studies.
Fibroblast cultures in 100-mm dishes were solubilized in appropriate volumes of M-PER mammalian protein extraction reagent (Pierce Biotechnology, Rockford, Ill.) containing a Protease Inhibitor mixture (Roche, Mannheim, Germany) and phosphatase inhibitors. The protein concentration of each extract was measured using a BCA protein assay kit (Pierce, Rockford, Ill.). Cell extracts (20 μg) were separated on 8-16% gradient SDS polyacrylamide gels (Invitrogen, Carlsbad, Calif.), after which proteins were transferred to PVDF membranes (Invitrogen, Carlsbad, Calif.). […] Antigen-antibody complexes were detected using an ECL-plus Western blotting detection system (GE Healthcare). […]

The subject of assay [2] is phospho-Akt (Ser473). In words: Phosphorylated-Akt levels by western blotting in melanocytes. To be noted: NRG-1 50 ng/ml. It counts as cell-based, human. As to the method: FIGS. 5A-5D illustrate the effect of NRG-1 on the proliferation of human melanocytes in culture. FIG. 5A) Lightly-pigmented (HEM-LP) and FIG. 5B) darkly-pigmented (HEM-DP) melanocytes were treated with or without NRG-1 (50 ng/ml) for 1, 3, 5 or 9 days in 10 cm culture dishes and total cell numbers were counted. Results are the averages of three studies±SD. FIG. 5C) Phosphorylated-Akt levels were detected by western blotting for HEM-LP and HEM-DP melanocytes treated with NRG-1 (50 ng/ml) for 5 days compared to vehicle treated controls; GAPDH is used as a loading control. FIG. 5D) HEM-DP melanocytes were treated with NRG-1 (50 ng/ml) for 1, 3 or 5 days and p-Akt levels were detected by western blotting compared to vehicle treated controls; GAPDH is used as a loading control. Results shown are representative of three studies; statistically significant differences are indicated.
Fibroblast cultures in 100-mm dishes were solubilized in appropriate volumes of M-PER mammalian protein extraction reagent (Pierce Biotechnology, Rockford, Ill.) containing a Protease Inhibitor mixture (Roche, Mannheim, Germany) and phosphatase inhibitors. The protein concentration of each extract was measured using a BCA protein assay kit (Pierce, Rockford, Ill.). Cell extracts (20 μg) were separated on 8-16% gradient SDS polyacrylamide gels (Invitrogen, Carlsbad, Calif.), after which proteins were transferred to PVDF membranes (Invitrogen, Carlsbad, Calif.). Membranes were blocked for 1 hour in PBS or Tris buffered saline (TBS) containing 0.1% Tween 20 and 5% (w/v) nonfat dry milk powder and were incubated overnight at 4° C. with the primary antibody in PBS containing 0.1% Tween 20 and 2.5% (w/v) nonfat dry milk powder or in 0.1% Tween-TBS with 5% BSA, depending on the antibody. The following primary antibodies were used: anti-human DKK-1 (0.2 μg/ml), anti-human DKK-3 (0.1 μg/ml), anti-human bFGF (0.1 μg/ml), anti-human SCF (0.1 μg/ml), anti-human mouse monoclonal ERBB3 (1 μg/ml) and anti-human mouse monoclonal ERBB4 (2 μg/ml) antibodies from R&D Systems, neuregulin-1α/β1/2 (C-20) (1:500) and GAPDH (FL-335) (1:10,000) antibodies from Santa Cruz Biotechnology, ERBB2 rabbit monoclonal (1:1000) and phospho-Akt (Ser473) (1:1000) antibodies from Cell Signaling Technology. Membranes were then incubated with an HRP-linked anti-rabbit antibody (GE Healthcare) at 1:10,000 dilution or with an anti-goat antibody (DAKO) at 1:2,000 dilution at room temperature for 1 hour. Antigen-antibody complexes were detected using an ECL-plus Western blotting detection system (GE Healthcare). Each study was performed at least in triplicate. […]
For orientation: A western blot detects proteins with antibodies after separation by electrophoresis.

B1: NRG-1: commercially available recombinant human neuregulin-1 (rhNRG-1-β1, R&D Systems), SEQ ID NO: 11 (protein)
chain: TSHLVKCAEKEKTFCVNGGECFMVKDLSNPSRYLCKCPNEFTGDRCQNYVMASFYKHLGIEFMEAEELYQK
For the molecule B1, the results for the ERBB3 expression level result in assay [1] (HEM-DP) and in assay [1] (HEM-LP) were “not affected” and “no detectable change”, respectively. The “Levels of p-Akt” value in assay [2] (HEM-DP, day 1, low confluency, vs control) is given as “equally high”; in assay [2] (HEM-DP, day 5, vs control), “significantly higher”; in assay [2] (HEM-LP, day 5, vs control) it was “significantly higher”. The “Levels of p-Akt, time course” value in assay [2] (HEM-DP, day 3 through day 5, control decreased by day 3) is listed as “maintained higher levels of p-Akt through day 5”.
